Measurements from PMC9482650, “Quantitative fragmentomics allow affinity mapping of interactomes” (Nature Communications, 2022).

T1: APBA2_1, Q99767
T1 sequence (Q99767 563-664, limits assumed, looked up): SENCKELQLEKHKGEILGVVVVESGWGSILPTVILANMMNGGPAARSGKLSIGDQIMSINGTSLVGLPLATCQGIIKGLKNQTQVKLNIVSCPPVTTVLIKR

T2: APBA3_1, O96018
T2 sequence (O96018 389-490, limits assumed, looked up): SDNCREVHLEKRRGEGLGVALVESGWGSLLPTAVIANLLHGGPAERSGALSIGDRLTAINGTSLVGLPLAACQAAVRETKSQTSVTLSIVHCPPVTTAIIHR

T3: ARHGAP21, Q5T5U3
T3 sequence (Q5T5U3 45-169, limits assumed, looked up): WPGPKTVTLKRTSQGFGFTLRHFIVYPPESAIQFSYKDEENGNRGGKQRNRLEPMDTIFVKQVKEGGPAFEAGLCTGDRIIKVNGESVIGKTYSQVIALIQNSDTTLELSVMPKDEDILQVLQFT

T4: DLG3_1, Q92796
T4 sequence (Q92796 125-227, limits assumed, looked up): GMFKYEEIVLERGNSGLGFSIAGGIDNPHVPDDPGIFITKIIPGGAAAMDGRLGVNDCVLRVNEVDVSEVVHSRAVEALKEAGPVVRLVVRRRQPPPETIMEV

T5: DLG3_2, Q92796
T5 sequence (Q92796 221-321, limits assumed, looked up): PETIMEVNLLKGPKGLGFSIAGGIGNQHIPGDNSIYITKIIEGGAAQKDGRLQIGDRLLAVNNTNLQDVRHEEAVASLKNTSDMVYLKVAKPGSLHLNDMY

T6: DVL3, Q92997
T6 sequence (Q92997 244-331, limits assumed, looked up): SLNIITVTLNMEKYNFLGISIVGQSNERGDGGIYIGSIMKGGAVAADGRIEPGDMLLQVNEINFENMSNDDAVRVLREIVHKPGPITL

T7: FRMPD1, Q5SYB0
T7 sequence (Q5SYB0 52-145, limits assumed, looked up): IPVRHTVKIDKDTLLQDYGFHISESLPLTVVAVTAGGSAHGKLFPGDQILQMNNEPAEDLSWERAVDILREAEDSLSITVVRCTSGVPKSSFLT

T8: GRIP1_5, Q9Y3R0
T8 sequence (Q9Y3R0 568-668, limits assumed, looked up): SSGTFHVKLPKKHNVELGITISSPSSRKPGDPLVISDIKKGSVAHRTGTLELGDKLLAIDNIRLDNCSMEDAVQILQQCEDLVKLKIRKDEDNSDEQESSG

T9: PDZD7_3, Q9H5P4
T9 sequence (Q9H5P4 857-944, limits assumed, looked up): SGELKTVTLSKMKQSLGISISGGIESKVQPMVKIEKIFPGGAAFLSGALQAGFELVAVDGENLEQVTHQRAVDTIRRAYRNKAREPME

T10: SHANK1, Q9Y566
T10 sequence (Q9Y566 658-767, limits assumed, looked up): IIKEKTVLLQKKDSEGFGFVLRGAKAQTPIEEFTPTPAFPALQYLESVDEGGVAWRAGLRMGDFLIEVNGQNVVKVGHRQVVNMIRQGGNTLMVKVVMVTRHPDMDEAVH

T11: SNTB1, Q13884
T11 sequence (Q13884 107-205, limits assumed, looked up): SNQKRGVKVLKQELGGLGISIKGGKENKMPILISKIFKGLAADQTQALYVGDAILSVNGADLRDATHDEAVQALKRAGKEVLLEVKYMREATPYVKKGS

T12: SYNJ2BP, P57105
T12 sequence (P57105 8-110, limits assumed, looked up): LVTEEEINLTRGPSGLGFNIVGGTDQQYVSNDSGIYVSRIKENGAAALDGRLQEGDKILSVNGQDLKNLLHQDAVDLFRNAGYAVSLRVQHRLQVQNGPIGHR

T13: TJP3_3, O95049
T13 sequence (O95049 375-456, limits assumed, looked up): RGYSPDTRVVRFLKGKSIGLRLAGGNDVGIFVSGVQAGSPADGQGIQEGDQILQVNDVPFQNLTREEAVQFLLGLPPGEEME


How the values were obtained:
Assay in all cases: holdup assay
Set-up in all cases: key: below the threshold = too weak to quantify, mostly under pKd 3.1 to 4
Settings in all cases: plain residues with an end cap or a label only (N-terminal biotin on a linker: ado-ado)
APBA2_1, Q99767 = target: T1, APBA2_1, Q99767
APBA3_1, O96018 = target: T2, APBA3_1, O96018
ARHGAP21, Q5T5U3 = target: T3, ARHGAP21, Q5T5U3
DLG1_2, Q12959 = target: DLG1_2, Q12959
Sequence of DLG1_2, Q12959 (Q12959 314-412): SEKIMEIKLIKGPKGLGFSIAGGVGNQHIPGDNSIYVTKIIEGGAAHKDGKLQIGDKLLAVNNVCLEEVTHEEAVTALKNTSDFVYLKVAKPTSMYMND

DLG3_1, Q92796 = target: T4, DLG3_1, Q92796
DLG3_2, Q92796 = target: T5, DLG3_2, Q92796
DVL3, Q92997 = target: T6, DVL3, Q92997
FRMPD1, Q5SYB0 = target: T7, FRMPD1, Q5SYB0
GRID2IP_2, A4D2P6 = target: GRID2IP_2, A4D2P6
Sequence of GRID2IP_2, A4D2P6 (A4D2P6 272-370): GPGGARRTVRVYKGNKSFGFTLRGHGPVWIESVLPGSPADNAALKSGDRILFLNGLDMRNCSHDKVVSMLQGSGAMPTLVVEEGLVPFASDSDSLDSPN

GRIP1_5, Q9Y3R0 = target: T8, GRIP1_5, Q9Y3R0
GRIP2_4, Q9C0E4 = target: GRIP2_4, Q9C0E4
Sequence of GRIP2_4, Q9C0E4 (Q9C0E4 446-548): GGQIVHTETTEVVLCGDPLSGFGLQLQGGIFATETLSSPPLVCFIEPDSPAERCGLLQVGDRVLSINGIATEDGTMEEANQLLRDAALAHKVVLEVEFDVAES

HTRA1, Q92743 = target: HTRA1, Q92743
Sequence of HTRA1, Q92743 (Q92743 360-477): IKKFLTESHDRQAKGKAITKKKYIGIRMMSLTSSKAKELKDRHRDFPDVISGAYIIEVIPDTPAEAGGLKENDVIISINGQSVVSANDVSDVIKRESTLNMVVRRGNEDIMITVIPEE

Inadl_4, Q8NI35 = target: Inadl_4, Q8NI35
Sequence of Inadl_4, Q8NI35 (Q8NI35 547-651): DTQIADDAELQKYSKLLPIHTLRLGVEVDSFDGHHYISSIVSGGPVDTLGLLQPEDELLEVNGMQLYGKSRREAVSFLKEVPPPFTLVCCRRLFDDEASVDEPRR

Inadl_6, Q8NI35 = target: Inadl_6, Q8NI35
Sequence of Inadl_6, Q8NI35 (Q8NI35 1058-1167): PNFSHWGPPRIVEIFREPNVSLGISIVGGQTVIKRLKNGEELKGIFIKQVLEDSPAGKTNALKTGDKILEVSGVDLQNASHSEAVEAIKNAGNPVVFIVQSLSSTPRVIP

MAGI2_5, Q86UL8 = target: MAGI2_5, Q86UL8
Sequence of MAGI2_5, Q86UL8 (Q86UL8 915-1017): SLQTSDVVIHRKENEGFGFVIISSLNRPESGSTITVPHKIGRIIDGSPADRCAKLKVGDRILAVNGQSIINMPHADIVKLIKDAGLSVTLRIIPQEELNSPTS

MAGI2_6, Q86UL8 = target: MAGI2_6, Q86UL8
Sequence of MAGI2_6, Q86UL8 (Q86UL8 1141-1229): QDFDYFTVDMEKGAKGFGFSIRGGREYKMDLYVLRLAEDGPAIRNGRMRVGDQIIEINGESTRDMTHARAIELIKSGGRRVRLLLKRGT

MAST1, Q9Y2H9 = target: MAST1, Q9Y2H9
Sequence of MAST1, Q9Y2H9 (Q9Y2H9 962-1065): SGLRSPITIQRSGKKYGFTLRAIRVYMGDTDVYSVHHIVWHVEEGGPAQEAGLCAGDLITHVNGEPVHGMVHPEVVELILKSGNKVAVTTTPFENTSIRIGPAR

PDLIM1, O00151 = target: PDLIM1, O00151
Sequence of PDLIM1, O00151 (O00151 1-87): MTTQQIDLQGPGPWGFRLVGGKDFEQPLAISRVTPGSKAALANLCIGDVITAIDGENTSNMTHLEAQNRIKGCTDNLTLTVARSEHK

PDZD7_3, Q9H5P4 = target: T9, PDZD7_3, Q9H5P4
SCRIB_2, Q14160 = target: SCRIB_2, Q14160
Sequence of SCRIB_2, Q14160 (Q14160 857-960): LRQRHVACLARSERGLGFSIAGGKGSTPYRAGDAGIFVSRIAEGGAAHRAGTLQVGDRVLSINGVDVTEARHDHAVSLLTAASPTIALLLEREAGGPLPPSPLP

SHANK1, Q9Y566 = target: T10, SHANK1, Q9Y566
SNTB1, Q13884 = target: T11, SNTB1, Q13884
SYNJ2BP, P57105 = target: T12, SYNJ2BP, P57105
TJP3_3, O95049 = target: T13, TJP3_3, O95049

| pKd (APBA2_1, Q99767) | pKd (APBA3_1, O96018) | pKd (ARHGAP21, Q5T5U3) | pKd (DLG1_2, Q12959) | pKd (DLG3_1, Q92796) | pKd (DLG3_2, Q92796) | pKd (DVL3, Q92997) | pKd (FRMPD1, Q5SYB0) | pKd (GRID2IP_2, A4D2P6) | pKd (GRIP1_5, Q9Y3R0) | pKd (GRIP2_4, Q9C0E4) | pKd (HTRA1, Q92743) | pKd (Inadl_4, Q8NI35) | pKd (Inadl_6, Q8NI35) | pKd (MAGI2_5, Q86UL8) | pKd (MAGI2_6, Q86UL8) | pKd (MAST1, Q9Y2H9) | pKd (PDLIM1, O00151) | pKd (PDZD7_3, Q9H5P4) | pKd (SCRIB_2, Q14160) | Binder | other results |
| --- | --- | --- | --- | --- | --- | --- | --- | --- | --- | --- | --- | --- | --- | --- | --- | --- | --- | --- | --- | --- | --- |
| below the threshold | below the threshold | below the threshold | 4.98 | 4.04 | 4.61 | below the threshold | below the threshold | 4.34 | below the threshold | below the threshold | below the threshold | below the threshold | below the threshold | 4.38 | 3.83 | 4.74 | below the threshold | 4.36 | 4.18 | FHSIKQSTAV [CRHR1, P34998] | pKd (SHANK1, Q9Y566): 4.55; pKd (SNTB1, Q13884): 3.75; pKd (SYNJ2BP, P57105): 5.21; pKd (TJP3_3, O95049): below the threshold |
| below the threshold | below the threshold | 4.09 | 5.91 | 4.59 | 5.28 | below the threshold | below the threshold | 3.98 | below the threshold | below the threshold | 4.6 | below the threshold | 3.53 | 3.63 | 3.72 | below the threshold | 3.49 | 5.64 | 3.49 | ATKDKKITTV [EXOC4, Q96A65] | pKd (SHANK1, Q9Y566): below the threshold; pKd (SNTB1, Q13884): 4.34; pKd (SYNJ2BP, P57105): 4.14; pKd (TJP3_3, O95049): below the threshold |
